Test results published in publication PMC10794133, “Structures of the promoter-bound respiratory syncytial virus polymerase”.

Legend:
[1] = molecular target: T1, RSV L (RNA-dependent RNA polymerase);RSV P (phosphoprotein) (human respiratory syncytial virus, …, UniProt P28887;P03421 1-2165;1-241, |); experiment: cryo-EM structure; GTP and CpNpp supplemented (no product density); pre-initiation at position 3; Cryo-EM grid conditions not in the material; protein in 25 mM HEPES pH 7.4, 300 mM NaCl, 6 mM MgSO4, 0.5 mM TCEP (gel filtration buffer); details: protein: recombinant;recombinant; tags: N-terminal 6xHis-TEV, TEV-treated;; copies: 1;4; single strand
[2] = molecular target: T1, RSV L (RNA-dependent RNA …); experiment: cryo-EM structure; pre-initiation at position 1; Cryo-EM grid conditions not in the material; protein in 25 mM HEPES pH 7.4, 300 mM NaCl, 6 mM MgSO4, 0.5 mM TCEP (gel filtration buffer); details: protein: recombinant;recombinant; tags: N-terminal 6xHis-TEV, TEV-treated;; copies: 1;4; single strand

T1 sequence (P28887 whole entry, chain 1 of 2): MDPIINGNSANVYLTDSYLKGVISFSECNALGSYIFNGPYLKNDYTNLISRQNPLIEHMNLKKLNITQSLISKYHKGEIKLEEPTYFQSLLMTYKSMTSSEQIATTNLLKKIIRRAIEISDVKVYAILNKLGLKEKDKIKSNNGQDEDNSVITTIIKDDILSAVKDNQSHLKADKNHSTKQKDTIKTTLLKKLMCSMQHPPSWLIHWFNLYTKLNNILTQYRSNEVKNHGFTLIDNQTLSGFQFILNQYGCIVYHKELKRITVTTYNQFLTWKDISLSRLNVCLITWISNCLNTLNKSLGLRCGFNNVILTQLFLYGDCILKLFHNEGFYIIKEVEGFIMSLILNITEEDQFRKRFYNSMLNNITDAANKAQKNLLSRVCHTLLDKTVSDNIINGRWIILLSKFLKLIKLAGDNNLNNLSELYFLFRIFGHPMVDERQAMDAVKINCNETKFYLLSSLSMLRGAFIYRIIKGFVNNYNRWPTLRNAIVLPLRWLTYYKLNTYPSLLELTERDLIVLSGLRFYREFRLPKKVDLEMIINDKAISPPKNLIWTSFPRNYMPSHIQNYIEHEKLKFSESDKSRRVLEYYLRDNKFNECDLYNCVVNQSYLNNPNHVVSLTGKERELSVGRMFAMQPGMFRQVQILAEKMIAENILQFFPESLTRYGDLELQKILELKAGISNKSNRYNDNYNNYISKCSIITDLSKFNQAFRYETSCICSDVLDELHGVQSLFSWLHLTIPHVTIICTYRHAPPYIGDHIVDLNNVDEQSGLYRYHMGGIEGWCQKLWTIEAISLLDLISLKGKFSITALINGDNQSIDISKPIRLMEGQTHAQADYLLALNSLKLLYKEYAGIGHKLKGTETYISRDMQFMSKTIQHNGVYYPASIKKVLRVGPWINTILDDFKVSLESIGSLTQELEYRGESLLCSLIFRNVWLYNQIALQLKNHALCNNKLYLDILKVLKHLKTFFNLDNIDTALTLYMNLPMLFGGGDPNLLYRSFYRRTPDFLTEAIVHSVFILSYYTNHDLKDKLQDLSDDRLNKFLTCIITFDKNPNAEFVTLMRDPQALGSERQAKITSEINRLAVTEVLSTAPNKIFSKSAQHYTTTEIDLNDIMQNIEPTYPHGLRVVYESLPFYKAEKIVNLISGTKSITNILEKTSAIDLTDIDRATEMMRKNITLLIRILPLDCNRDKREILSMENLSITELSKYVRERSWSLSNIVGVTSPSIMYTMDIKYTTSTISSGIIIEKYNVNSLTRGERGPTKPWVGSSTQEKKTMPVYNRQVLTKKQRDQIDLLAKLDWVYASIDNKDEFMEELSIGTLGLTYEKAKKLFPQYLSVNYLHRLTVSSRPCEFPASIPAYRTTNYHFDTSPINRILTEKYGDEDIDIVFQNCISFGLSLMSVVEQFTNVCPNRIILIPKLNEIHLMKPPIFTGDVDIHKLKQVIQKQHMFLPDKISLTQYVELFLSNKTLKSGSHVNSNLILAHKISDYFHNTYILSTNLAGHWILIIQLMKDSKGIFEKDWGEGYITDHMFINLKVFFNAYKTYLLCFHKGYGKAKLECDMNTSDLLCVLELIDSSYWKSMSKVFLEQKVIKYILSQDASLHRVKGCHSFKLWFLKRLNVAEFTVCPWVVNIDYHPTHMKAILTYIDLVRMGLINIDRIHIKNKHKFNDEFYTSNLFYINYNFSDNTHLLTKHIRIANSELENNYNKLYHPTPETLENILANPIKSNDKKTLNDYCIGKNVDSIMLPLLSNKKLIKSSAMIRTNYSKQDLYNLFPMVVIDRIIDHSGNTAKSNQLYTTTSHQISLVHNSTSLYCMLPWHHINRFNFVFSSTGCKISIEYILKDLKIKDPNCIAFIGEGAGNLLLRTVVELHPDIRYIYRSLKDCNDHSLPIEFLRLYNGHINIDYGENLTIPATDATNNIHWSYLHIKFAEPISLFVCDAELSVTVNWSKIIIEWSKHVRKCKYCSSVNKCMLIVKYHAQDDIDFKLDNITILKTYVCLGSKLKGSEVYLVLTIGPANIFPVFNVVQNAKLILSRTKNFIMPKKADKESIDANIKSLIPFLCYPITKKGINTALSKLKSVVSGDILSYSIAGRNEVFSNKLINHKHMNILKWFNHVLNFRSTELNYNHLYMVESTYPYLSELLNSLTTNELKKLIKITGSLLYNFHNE
T1 sequence (P03421 whole entry, chain 2 of 2): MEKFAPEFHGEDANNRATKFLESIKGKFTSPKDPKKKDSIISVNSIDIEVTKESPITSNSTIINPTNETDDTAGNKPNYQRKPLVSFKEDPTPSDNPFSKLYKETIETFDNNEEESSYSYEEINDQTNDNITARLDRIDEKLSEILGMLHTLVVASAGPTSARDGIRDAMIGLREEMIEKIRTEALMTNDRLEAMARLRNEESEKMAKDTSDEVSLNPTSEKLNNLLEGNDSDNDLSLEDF

Binder	binding result [1]	binding result [2]
UUUUUCGCGU (ssRNA) [Le10 (3' leader promoter of genome)]	binds	
UUUUUCUCGU (ssRNA) [TrC10 (3' trailer complementary promoter of antigenome)]		binds
